Substitutions are numbered along the chain they refer to. Where “and” joins values, the source holds several entries; their conditions need not be identical. Equal values may be shown once.
T1: human IL-1α (human, UniProt P01583 113-271)
T1 sequence (looked up): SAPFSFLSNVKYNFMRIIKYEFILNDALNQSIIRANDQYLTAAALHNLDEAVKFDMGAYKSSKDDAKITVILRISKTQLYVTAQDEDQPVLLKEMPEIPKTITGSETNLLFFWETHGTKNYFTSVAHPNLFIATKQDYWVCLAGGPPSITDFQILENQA

B1: ABT2-108-538x/ABT1-122-511 hu IgG1/K wt (bispecific antibody, V domains shown)
VH: EVQLLESGGGLVQPGGSLRLSCAASGFTFADEGMMWVRQAPGKGLEWVSRITYSGKNTYYADSVKGRFTISRDNSKNTLYLQMNSLRAEDTAVYYCAKYTGRILGHHLFDYWGQGTLVTVSS
VL: DIQMTQSPSSLSASVGDRVTITCRASQPIWTELNWYQQKPGKAPKLLIYGSSSLQRGVPSRFSGSGSGTDFTLTISSLQPEDFATYYCKQFAYFPATFGQGTKVEIKR
B2: IgG pairing ABT1-122-750X with ABT2-65-17 (bispecific antibody, V domains shown)
VH: EVQLLESGGGLVQPGGSLRLSCVASGFTFEDYQMGWVRQAPGKGLEWVSSISAMGNRTYYADSVKGRFTISRDDSKNTLYLQMNSLRAEDTAVYYCAQNLVRLGRSRWMFDYWGQGTLVTVSS
VL: B1 VL with T20A, R24S, P28H, L33I, N34S, S52A, L54R, R56K, A96N
B3: ABT2-108-538x/ABT1-122-750x hu IgG1/K wt (bispecific antibody, V domains shown)
VH: B1 VH
VL: B1 VL with T20A, R24S, P28H, L33I, N34S, S52A, L54R, R56K, A96N
B4: ABT2-108-617/ABT1-122 Fab on yeast surface (Fab, V domains shown)
VH: B1 VH with D31E, E32Y, G33T, T52G, Y53Q, S54D, L104F, G105T
VL: B1 VL with R56S, K89Q
B5: ABT2-108-612/ABT1-122 Fab on yeast surface (Fab, V domains shown)
VH: B1 VH with D31E, E32Y, G33T, T52G, Y53Q, S54D, L104M
VL: B1 VL with R56S, K89Q
B6: ABT2-108-616/ABT1-122 Fab on yeast surface (Fab, V domains shown)
VH: B1 VH with D31E, E32Y, G33T, T52G, Y53Q, S54D, L104Y, G105N
VL: B1 VL with R56S, K89Q
B7: ABT2-108-606/ABT1-122 Fab on yeast surface (Fab, V domains shown)
VH: EVQLLESGGGLVQPGGSLRLSCAASGFTFAEYTMMWVRQAPGKGLEWVSRIGQDGKNTYYRSSVKGRFTISRDNSKNTLYLQMNSLRAEDTAVYYCAKYTGRVGVHHLFDYWGQGTLVTVSS
VL: B1 VL with R56S, K89Q
B8: ABT2-108-605/ABT1-122 Fab on yeast surface (Fab, V domains shown)
VH: B7 VH with S62E, S63D
VL: B1 VL with R56S, K89Q
B9: ABT2-108-608/ABT1-122 Fab on yeast surface (Fab, V domains shown)
VH: B7 VH with Y60T, S62D
VL: B1 VL with R56S, K89Q
B10: ABT2-108-604/ABT1-122 Fab on yeast surface (Fab, V domains shown)
VH: B7 VH with I51V, G52T, Q53Y, R61A, S62D
VL: B1 VL with R56S, K89Q
B11: ABT2-108-614/ABT1-122 Fab on yeast surface (Fab, V domains shown)
VH: B7 VH with R61A, S62D, V103I, G104L, V105R
VL: B1 VL with R56S, K89Q
B12: ABT2-108-615/ABT1-122 Fab on yeast surface (Fab, V domains shown)
VH: B7 VH with Y59V, Y60I, S62D
VL: B1 VL with R56S, K89Q
B13: ABT2-108/ABT1-95-3 hu IgG1/K wt (bispecific antibody, V domains shown)
VH: EVQLLESGGGLVQPGGSLRLSCAASGFTFAEYTMMWVRQAPGKGLEWVSRIGQDGKNTYYADSVKGRFTISRDNSKNTLYLQMNSLRAEDTAVYYCAKYTGRVGVHHLFDYWGQGTLVTSS
VL: DIQMTQSPSSLSASVGDRVTITCRASQPIHGNLRWYQQKPGKAPKLLIYSSSYLQSGVPSRFSGSGSGTDFTLTISSLQPEDFATYHCQQGYRWPVTFGQGTKVEIKR
B14: ABT2-65-17/ABT1-95-15 huIgG1/K wt (bispecific antibody, V domains shown)
VH: B2 VH
VL: B13 VL with H30V, G31R, Q55E, S56P

Key:
human IL-1β [1] = target: T2, human IL-1β (human, UniProt P01584 117-269); assay: cell-based or functional assay
human IL-1α [2] = target: T1, human IL-1α; assay: cell-based or functional assay
human IL-1β [3] = target: T2, human IL-1β; assay: cell-based or functional assay; remark: listed apart in the source
human IL-1β [4] = target: T2, human IL-1β; assay: yeast surface Fab display, flow cytometry titration
human IL-1α [5] = target: T1, human IL-1α; assay: cell-based or functional assay; remark: listed apart in the source

| Binder | MRC5 IL-1α (human IL-1α [2]) | EC50 (human IL-1β [4]) | also measured |
| --- | --- | --- | --- |
| B1 | 259 nM | – | IL-1β IC50 (human IL-1β [1]): 0.006 nM and 0.009 nM and 0.01 nM; MRC5 IL-1β (human IL-1β [3]): 0.009 nM |
| B2 | 20 nM | – | MRC5 IL-1β (human IL-1β [3]): 1 nM |
| B3 | 75 nM | – | IL-1β IC50 (human IL-1β [1]): 0.005 nM and 0.008 nM and 0.01 nM; MRC5 IL-1β (human IL-1β [3]): 0.0094 nM |
| B4 | – | 0.224 nM | fold improvement in affinity over ABT2-108 (human IL-1β [4]): 25 fold |
| B5 | – | 0.267 nM | – |
| B6 | – | 0.324 nM | – |
| B7 | – | 0.343 nM | – |
| B8 | – | 0.21 nM | – |
| B9 | – | 0.366 nM | – |
| B10 | – | 1.35 nM | fold improvement in affinity over ABT2-108 (human IL-1β [4]): 5 fold |
| B11 | – | 1.01 nM | – |
| B12 | – | 0.214 nM | fold improvement in affinity over ABT2-108 (human IL-1β [4]): 25 fold |
| B13 | 300 nM | – | IL-1α IC50 (human IL-1α [5]): 1500 nM; IL-1β IC50 (human IL-1β [1]): 200 nM |
| B14 | 2.7 nM | – | MRC5 IL-1β (human IL-1β [3]): 0.094 nM |

— patent US20090291081A1 (AbbVie / Abbott, published 2009)
